B1: CUL3_(NTDΔ22) (CUL3 residues 23–388, I342R L346D) (domain or fragment, human, UniProt Q13618 23-388, looked up)
chain: MTMDEKYVNSIWDLLKNAIQEIQRKNNSGLSFEELYRNAYTMVLHKHGEKLYTGLREVVTEHLINKVREDVLNSLNNNFLQTLNQAWNDHQTAMVMIRDILMYMDRVYVQQNNVENVYNLGLIIFRDQVVRYGCIRDHLRQTLLDMIARERKGEVVDRGAIRNACQMLMILGLEGRSVYEEDFEAPFLEMSAEFFQMESQKFLAENSASVYIKKVEARINEEIERVMHCLDKSTEEPIVKVVERELISKHMKTIVEMENSGLVHMLKNGKTEDLGCMYKLFSRVPNGLKTMCECMSSYLREQGKALVSEEGEGKNPVDYRQGLDDLKSRFDRFLLESFNNDRLFKQTIAGDFEYFLNLNSRSPEYL
notes: human CUL3, Uniprot Q13618, residues 23–388, vector pNIC-CTHF, with stabilising mutations I342R and L346D; also called CUL3_(NTDΔN22); source: E. coli BL21(DE3)-pRARE2, purified (nickel sepharose, TEV cleavage, SEC); not shown: His6, C-terminal, cleaved; FLAG, C-terminal, cleaved
B2: KLHL11 BTB-BACK (residues 67-340), unlabeled (domain or fragment, human, UniProt Q9NVR0 67-340, looked up)
chain: EAEDFECSSHCSELSWRQNEQRRQGLFCDITLCFGGAGGREFRAHRSVLAAATEYFTPLLSGQFSESRSGRVEMRKWSSEPGPEPDTVEAVIEYMYTGRIRVSTGSVHEVLELADRFLLIRLKEFCGEFLKKKLHLSNCVAIHSLAHMYTLSQLALKAADMIRRNFHKVIQDEEFYTLPFHLIRDWLSDLEITVDSEEVLFETVLKWVQRNAEERERYFEELFKLLRLSQMKPTYLTRHVKPERLVANNEVCVKLVADAVERHALRAENIQSGT
notes: human KLHL11 BTB and BACK domains, residues 67-340, in vector pNIC28-Bsa4; source: E. coli BL21(DE3)-pRARE2, purified (nickel sepharose, TEV cleavage, SEC); not shown: His6, N-terminal, cleaved
B3: CoraFluor-1-labeled KLHL11_(BTB-BACK) (domain or fragment, human, UniProt Q9NVR0 67-340, looked up)
chain: B2 chain
modifications: CoraFluor-1 by direct acylation with CoraFluor-1-Pfp (sites not given)
notes: human KLHL11, Uniprot Q9NVR0, residues 67–340, vector pNIC28-Bsa4; source: E. coli BL21(DE3)-pRARE2, purified (nickel sepharose, TEV cleavage, SEC), labeled with CoraFluor-1-Pfp; not shown: His6, N-terminal, cleaved
B4: CoraFluor-1-labeled KLHL11 BTB-BACK (domain or fragment, human, UniProt Q9NVR0 67-340, looked up)
chain: B2 chain
modifications: CoraFluor-1 by direct acylation with CoraFluor-1-Pfp (sites not given)
notes: human KLHL11 BTB and BACK domains, residues 67-340, in vector pNIC28-Bsa4; TR-FRET donor protein; source: E. coli BL21(DE3)-pRARE2, purified (nickel sepharose, TEV cleavage, SEC), labeled with CoraFluor-1-Pfp; not shown: His6, N-terminal, cleaved
B5: Biotinylated KEAP1 BTB-3-box (residues 48-213) (domain or fragment, human, UniProt Q14145 48-213, looked up)
chain: GNRTFSYTLEDHTKQAFGIMNELRLSQQLCDVTLQVKYQDAPAAQFMAHKVVLASSSPVFKAMFTNGLREQGMEVVSIEGIHPKVMERLIEFAYTASISMGEKCVLHVMNGAVMYQIDSVVRACSDFLVQQLDPSNAIGIANFAEQIGCVELHQRAREYIYMHFGE
modifications: biotin on the avi tag

Experiments:
Conditions in all cases: both partners purified
[1] = target: B3; test: FRET or BRET; TR-FRET protein displacement assay: CoraFluor-1-labeled KLHL11_(BTB-BACK) + AF488-labeled CUL3NTD, unlabeled protein titrated (cmax 25 μM); assay buffer pH 7.5, 2 h, room temperature; KD from IC50 by Cheng-Prusoff
[2] = target: CoraFluor-1-labeled KEAP1FL (full-length, untagged KEAP1, residues 1–624) (human, UniProt Q14145 1-624, CoraFluor-1 by direct acylation with CoraFluor-1-Pfp (sites not given)); test: FRET or BRET; TR-FRET protein displacement assay: CoraFluor-1-labeled KEAP1FL + AF488-labeled CUL3NTD, unlabeled protein titrated (cmax 25 μM); assay buffer pH 7.5, 2 h, room temperature; KD from IC50 by Cheng-Prusoff
Chain of CoraFluor-1-labeled KEAP1FL (full-length, untagged KEAP1, residues 1–624) (Q14145 whole entry, the tested form may be a part): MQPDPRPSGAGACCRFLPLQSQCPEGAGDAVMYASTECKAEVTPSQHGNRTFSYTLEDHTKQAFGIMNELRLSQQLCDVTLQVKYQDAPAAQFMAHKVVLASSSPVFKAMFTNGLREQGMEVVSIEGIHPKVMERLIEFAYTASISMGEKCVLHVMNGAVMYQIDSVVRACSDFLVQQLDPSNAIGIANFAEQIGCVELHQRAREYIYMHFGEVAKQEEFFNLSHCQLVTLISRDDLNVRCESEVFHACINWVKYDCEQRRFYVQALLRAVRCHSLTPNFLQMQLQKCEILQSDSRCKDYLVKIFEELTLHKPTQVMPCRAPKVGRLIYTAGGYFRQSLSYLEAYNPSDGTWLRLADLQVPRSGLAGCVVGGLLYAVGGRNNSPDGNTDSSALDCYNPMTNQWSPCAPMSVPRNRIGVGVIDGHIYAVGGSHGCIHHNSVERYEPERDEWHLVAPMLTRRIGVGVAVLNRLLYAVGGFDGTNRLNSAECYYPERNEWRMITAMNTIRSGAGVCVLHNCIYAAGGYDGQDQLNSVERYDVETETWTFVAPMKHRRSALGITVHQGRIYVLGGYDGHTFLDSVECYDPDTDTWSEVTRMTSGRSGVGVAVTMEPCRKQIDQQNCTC

AF488-labeled CUL3NTD [3] = target: T1, AF488-labeled CUL3NTD (human, UniProt Q13618 1-388, I342R | L346D, AF488 by direct acylation with AF488-Tfp (sites not given)); test: FRET or BRET; TR-FRET protein displacement assay: CoraFluor-1-labeled KLHL11 (3 nM at 1.5x) and AF488-labeled CUL3NTD (45 nM at 1.5x); unlabeled protein titrated 1:3, 12 points, cmax 25 uM; 2 h at room temperature; 25 mM HEPES, 150 mM NaCl, 1 mM DTT, 0.5 mg/mL BSA, 0.005% TWEEN-20, pH 7.5; KD from IC50 by Cheng-Prusoff
T1 construct: human CUL3 N-terminal domain, residues 1-388, in vector pNIC-CTHF, with the stabilising mutations I342R and L346D; Fluorescent tracer of the TR-FRET assays; also called AF488-CUL3NTD; source: E. coli BL21(DE3)-pRARE2, purified (nickel sepharose, TEV cleavage, SEC), labeled with AF488-Tfp; not shown: His6, C-terminal, cleaved; FLAG, C-terminal, cleaved

[4] = target: B1; test: FRET or BRET; TR-FRET protein displacement assay: CoraFluor-1-labeled KLHL11_(BTB-BACK) + AF488-labeled CUL3NTD, unlabeled protein titrated (cmax 25 μM); assay buffer pH 7.5, 2 h, room temperature; KD from IC50 by Cheng-Prusoff
AF488-labeled CUL3NTD [5] = target: T2, AF488-labeled CUL3NTD (human, UniProt Q13618 1-388, I342R | L346D, AF488 by direct acylation with AF488-Tfp (sites not given)); test: FRET or BRET; TR-FRET dissociation: pre-equilibrated 20 nM CoraFluor-1-KEAP1 + 300 nM AF488-CUL3NTD, or 2 nM CoraFluor-1-KLHL11 + 45 nM AF488-CUL3NTD; 25 μM unlabeled KLHL11 added, read for 30 min; one-phase decay
T2 construct: human CUL3, Uniprot Q13618, residues 1–388, vector pNIC-CTHF, with stabilising mutations I342R and L346D; also called AF488-CUL3NTD; source: E. coli BL21(DE3)-pRARE2, purified (nickel sepharose, TEV cleavage, SEC), labeled with AF488-Tfp; not shown: His6, C-terminal, cleaved; FLAG, C-terminal, cleaved

AF488-labeled CUL3NTD [6] = target: T2, AF488-labeled CUL3NTD; test: FRET or BRET; TR-FRET saturation binding: AF488-labeled CUL3NTD titrated (cmax 1000 nM) onto CoraFluor-1-labeled KEAP1 or KLHL11; 25 mM HEPES, 150 mM NaCl, 1 mM DTT, 0.5 mg/mL BSA, 0.005% TWEEN-20, pH 7.5; 2 h, room temperature; One Site – Total Binding model
[7] = target: T3, CUL3 N-terminal domain (CUL3NTD, residues 1-388), unlabeled (human, UniProt Q13618 1-388, I342R | L346D); test: FRET or BRET; TR-FRET protein displacement assay: CoraFluor-1-labeled KLHL11 (3 nM at 1.5x) and AF488-labeled CUL3NTD (45 nM at 1.5x); unlabeled protein titrated 1:3, 12 points, cmax 25 uM; 2 h at room temperature; 25 mM HEPES, 150 mM NaCl, 1 mM DTT, 0.5 mg/mL BSA, 0.005% TWEEN-20, pH 7.5; KD from IC50 by Cheng-Prusoff
T3 construct: human CUL3 N-terminal domain, residues 1-388, in vector pNIC-CTHF, with the stabilising mutations I342R and L346D; source: E. coli BL21(DE3)-pRARE2, purified (nickel sepharose, TEV cleavage, SEC); not shown: His6, C-terminal, cleaved; FLAG, C-terminal, cleaved

[8] = target: T4, full length CUL3-RBX1 complex (human | , UniProt Q13618 1-768; P62877 1-108); test: BLI; Octet RED384; biotinylated KEAP1BTB-3-box immobilised on streptavidin tips; analyte in 50 mM HEPES, 300 mM NaCl, 0.5 mM TCEP, 10 mM DTT, 0.01% TWEEN-20; steady-state equilibrium analysis, 1:1 model; apparent
T4 sequence (Q13618 whole entry, chain 1 of 2, the tested form may be a part): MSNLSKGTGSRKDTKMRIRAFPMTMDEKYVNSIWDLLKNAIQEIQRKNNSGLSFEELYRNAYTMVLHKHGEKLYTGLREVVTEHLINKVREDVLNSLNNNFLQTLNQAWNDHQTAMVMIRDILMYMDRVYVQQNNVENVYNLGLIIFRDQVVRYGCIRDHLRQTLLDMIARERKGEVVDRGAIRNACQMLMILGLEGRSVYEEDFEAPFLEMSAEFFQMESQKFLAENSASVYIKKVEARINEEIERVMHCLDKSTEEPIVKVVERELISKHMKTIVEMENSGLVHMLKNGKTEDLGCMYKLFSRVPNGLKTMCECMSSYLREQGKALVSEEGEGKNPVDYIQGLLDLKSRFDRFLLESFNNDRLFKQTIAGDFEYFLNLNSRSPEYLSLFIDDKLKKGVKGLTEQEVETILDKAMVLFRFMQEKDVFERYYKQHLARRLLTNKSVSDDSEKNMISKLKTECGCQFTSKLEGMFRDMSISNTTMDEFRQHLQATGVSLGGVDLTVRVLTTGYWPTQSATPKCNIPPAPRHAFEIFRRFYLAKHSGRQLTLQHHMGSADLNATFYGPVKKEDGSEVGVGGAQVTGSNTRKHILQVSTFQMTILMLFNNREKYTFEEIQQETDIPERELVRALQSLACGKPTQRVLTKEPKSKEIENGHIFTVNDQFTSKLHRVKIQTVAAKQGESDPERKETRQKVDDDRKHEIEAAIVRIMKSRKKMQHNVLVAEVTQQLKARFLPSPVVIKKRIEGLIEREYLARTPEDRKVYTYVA
T4 sequence (P62877 whole entry, chain 2 of 2, the tested form may be a part): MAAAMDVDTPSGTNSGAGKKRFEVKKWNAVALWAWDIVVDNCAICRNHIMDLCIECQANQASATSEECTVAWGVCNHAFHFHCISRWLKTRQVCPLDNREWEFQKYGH

[9] = target: T3, CUL3 N-terminal domain (CUL3NTD, …); test: as above
[10] = target: T4, full length CUL3-RBX1 complex; test: BLI; Octet RED384; biotinylated KEAP1BTB-3-box immobilised on streptavidin tips; analyte in 50 mM HEPES, 300 mM NaCl, 0.5 mM TCEP, 10 mM DTT, 0.01% TWEEN-20; kinetic global fit, 1:1 model; apparent
[11] = target: T3, CUL3 N-terminal domain (CUL3NTD, …); test: as above
[12] = target: T3, CUL3 N-terminal domain (CUL3NTD, …); test: as above; remark: listed apart in the source

Binder: B1
fold decrease of affinity against CUL3NTD [1]: > 200 fold
Kd [2]: 13.8 µM

Binder: B2
Kd (AF488-labeled CUL3NTD [3]): 14 nM

Binder: B3
Kd [4]: 1840 nM
koff (AF488-labeled CUL3NTD [5]): 0.00381 s⁻¹
Kd (AF488-labeled CUL3NTD [6]): 20 nM

Binder: B4
Kd [7]: 8 nM

Binder: B5
Kd [8]: 4.4 µM
Kd [9]: 2900 nM
Kd [10]: 5.6 µM
koff [10]: 0.187 s⁻¹
kon [10]: 33200 M⁻¹ s⁻¹
Kd [11]: 5.2 µM
koff [12]: 0.189 s⁻¹
kon [12]: 36600 M⁻¹ s⁻¹

Reference: paper PMC10564622 (Free Radical Biology & Medicine, 2023)
